{"source": "patent US20120288511A1", "about": "(INDIANA UNIVERSITY RESEARCH AND TECHNOLOGY, published 2012)", "binders": {"B1": {"name": "Glucagon Analog 24 (peptide)", "peptide": "HSQGTFTSDYSKYLDEKRAKEFVC(PEG 40 kDa)WLMNT-NH2", "modifications": "also: DPP-IV-protecting residue at position 1 or 2 not given here, non-covalent salt bridge Lys17/Glu21"}, "B2": {"name": "Glucagon Analog 20 (peptide)", "peptide": "HSQGTFTSDYSKYLDEKRAKEFVQWLMNT-NH2", "modifications": "also: DPP-IV-protecting residue at position 1 or 2: D-Ser, Aib or Dmia, salt bridge Lys17/Glu21 plus salt bridge 16/20 or α,α-disubstituted residue at 16"}, "B3": {"name": "Glucagon Analog 29 (peptide)", "peptide": "HSQGTFTSDKSKYLDERAAQDFVC(PEG 40 kDa)WLLDT-NH2", "modifications": "not fully specified (residue 10); also: Lys10 acylated, acyl group not given here"}}, "assay_in_all_cases": "cell-based or functional assay", "key": {"glucagon receptor [1]": {"biological_target": "T1, glucagon receptor (human, UniProt P47871 26-477)", "T1 sequence (P47871 26-477)": "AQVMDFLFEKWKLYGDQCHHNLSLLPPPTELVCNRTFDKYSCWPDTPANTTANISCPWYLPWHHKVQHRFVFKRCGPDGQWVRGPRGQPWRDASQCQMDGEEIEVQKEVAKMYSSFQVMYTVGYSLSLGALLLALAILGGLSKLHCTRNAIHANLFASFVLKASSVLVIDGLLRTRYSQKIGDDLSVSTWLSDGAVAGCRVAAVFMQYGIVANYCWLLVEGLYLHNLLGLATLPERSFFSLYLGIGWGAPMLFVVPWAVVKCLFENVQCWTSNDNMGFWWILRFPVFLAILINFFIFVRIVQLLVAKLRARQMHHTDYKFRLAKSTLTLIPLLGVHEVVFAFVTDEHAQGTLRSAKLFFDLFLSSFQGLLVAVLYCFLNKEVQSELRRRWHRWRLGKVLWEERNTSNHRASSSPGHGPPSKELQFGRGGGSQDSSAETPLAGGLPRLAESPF"}, "GLP-1 receptor [2]": {"biological_target": "T2, GLP-1 receptor (human, UniProt P43220 24-463)"}, "glucagon receptor [3]": {"biological_target": "T1, glucagon receptor", "remark": "listed apart in the source"}, "GLP-1 receptor [4]": {"biological_target": "T2, GLP-1 receptor", "remark": "listed apart in the source"}, "glucagon receptor [5]": {"biological_target": "T1, glucagon receptor", "remark": "listed apart in the source"}, "GLP-1 receptor [6]": {"biological_target": "T2, GLP-1 receptor", "remark": "listed apart in the source"}, "glucagon receptor [7]": {"biological_target": "T1, glucagon receptor", "remark": "listed apart in the source"}, "GLP-1 receptor [8]": {"biological_target": "T2, GLP-1 receptor", "remark": "listed apart in the source"}, "glucagon receptor [9]": {"biological_target": "T1, glucagon receptor", "remark": "listed apart in the source"}, "GLP-1 receptor [10]": {"biological_target": "T2, GLP-1 receptor", "remark": "listed apart in the source"}, "glucagon receptor [11]": {"biological_target": "T1, glucagon receptor", "remark": "listed apart in the source"}, "GLP-1 receptor [12]": {"biological_target": "T2, GLP-1 receptor", "remark": "listed apart in the source"}, "glucagon receptor [13]": {"biological_target": "T1, glucagon receptor", "remark": "listed apart in the source"}, "GLP-1 receptor [14]": {"biological_target": "T2, GLP-1 receptor", "remark": "listed apart in the source"}}, "note": "Read-outs that look alike come from different tables or passages of the source. Non-standard residues stand in square brackets, D forms with d. No end group written: not given here. Aib = CC(C)(N)C(=O)O"}
{"binder": "B1", "values": [{"measurement": "% Relative Activity vs native glucagon", "setting": "glucagon receptor [1]", "value": 7, "unit": "%"}, {"measurement": "EC50 (cAMP luciferase reporter)", "setting": "glucagon receptor [1]", "value": 0.676, "unit": "nM"}, {"measurement": "% Relative Activity vs native GLP-1", "setting": "GLP-1 receptor [2]", "value": 5, "unit": "%"}, {"measurement": "EC50 (cAMP luciferase reporter)", "setting": "GLP-1 receptor [2]", "value": 1.58, "unit": "nM"}]}
{"binder": "B2", "values": [{"measurement": "EC50 (cAMP luciferase reporter)", "setting": "glucagon receptor [1]", "value": 0.054, "unit": "nM"}, {"measurement": "EC50 (cAMP luciferase reporter)", "setting": "GLP-1 receptor [2]", "value": 0.284, "unit": "nM"}, {"measurement": "EC50 (cAMP luciferase reporter)", "setting": "glucagon receptor [3]", "value": 0.054, "unit": "nM"}, {"measurement": "EC50 (cAMP luciferase reporter)", "setting": "GLP-1 receptor [4]", "value": 0.284, "unit": "nM"}]}
{"binder": "H[Aib]QGTFTSDYSKYLDEEAVRLFIEWLMNT-NH2", "note": "[Glucagon Analog C]", "values": [{"measurement": "EC50 (cAMP luciferase reporter)", "setting": "glucagon receptor [5]", "value": 0.17, "unit": "nM"}, {"measurement": "EC50 (cAMP luciferase reporter)", "setting": "GLP-1 receptor [6]", "value": 0.006, "unit": "nM"}]}
{"binder": "HSQGTFTSDYSKYLDKRRAEDFVQWLMNT (not fully specified; also: further groups not given here)", "note": "[Peptide 3]", "values": [{"measurement": "EC50 (cAMP luciferase reporter)", "setting": "glucagon receptor [7]", "value": 0.34, "unit": "nM"}, {"measurement": "EC50 (cAMP luciferase reporter)", "setting": "GLP-1 receptor [8]", "value": 1.15, "unit": "nM"}]}
{"binder": "HSQGTFTSDYSKYLDEEAVRLFIEWLMNT-NH2 (not fully specified (residue 2))", "note": "[Glucagon Analog A]", "values": [{"measurement": "EC50 (cAMP luciferase reporter)", "setting": "glucagon receptor [5]", "value": 0.061, "unit": "nM"}, {"measurement": "EC50 (cAMP luciferase reporter)", "setting": "GLP-1 receptor [6]", "value": 0.009, "unit": "nM"}]}
{"binder": "HSQGTFTSDKSKYLDERAAQDFVQWLLDT-NH2 (not fully specified; also: position 2 Aib or D-Ser)", "note": "[Glucagon Analog 51]", "values": [{"measurement": "% Relative Activity vs native glucagon", "setting": "glucagon receptor [9]", "value": 314, "unit": "%"}, {"measurement": "EC50 (cAMP luciferase reporter)", "setting": "glucagon receptor [9]", "value": 3.5, "unit": "pM"}, {"measurement": "% Relative Activity vs native GLP-1", "setting": "GLP-1 receptor [10]", "value": 949, "unit": "%"}, {"measurement": "EC50 (cAMP luciferase reporter)", "setting": "GLP-1 receptor [10]", "value": 3.9, "unit": "pM"}, {"measurement": "EC50 (cAMP luciferase reporter)", "setting": "glucagon receptor [11]", "value": 3.5, "unit": "pM"}, {"measurement": "EC50 (cAMP luciferase reporter)", "setting": "GLP-1 receptor [12]", "value": 3.9, "unit": "pM"}, {"measurement": "% Relative Activity vs native glucagon", "setting": "glucagon receptor [13]", "value": 314, "unit": "%"}, {"measurement": "EC50 (cAMP luciferase reporter)", "setting": "glucagon receptor [13]", "value": 0.004, "unit": "nM"}, {"measurement": "% Relative Activity vs native GLP-1", "setting": "GLP-1 receptor [14]", "value": 949, "unit": "%"}, {"measurement": "EC50 (cAMP luciferase reporter)", "setting": "GLP-1 receptor [14]", "value": 0.004, "unit": "nM"}]}
{"binder": "HSQGTFTSDYSKYLDEQAAKEFIAWLMNT-NH2 (not fully specified (residue 2))", "note": "[Glucagon Analog B]", "values": [{"measurement": "EC50 (cAMP luciferase reporter)", "setting": "glucagon receptor [5]", "value": 0.072, "unit": "nM"}, {"measurement": "EC50 (cAMP luciferase reporter)", "setting": "GLP-1 receptor [6]", "value": 0.014, "unit": "nM"}]}
{"binder": "B3", "values": [{"measurement": "EC50 (cAMP luciferase reporter)", "setting": "glucagon receptor [11]", "value": 85, "unit": "pM"}, {"measurement": "EC50 (cAMP luciferase reporter)", "setting": "GLP-1 receptor [12]", "value": 84, "unit": "pM"}, {"measurement": "% Relative Activity vs native glucagon", "setting": "glucagon receptor [13]", "value": 40, "unit": "%"}, {"measurement": "EC50 (cAMP luciferase reporter)", "setting": "glucagon receptor [13]", "value": 0.085, "unit": "nM"}, {"measurement": "% Relative Activity vs native GLP-1", "setting": "GLP-1 receptor [14]", "value": 43, "unit": "%"}, {"measurement": "EC50 (cAMP luciferase reporter)", "setting": "GLP-1 receptor [14]", "value": 0.084, "unit": "nM"}, {"measurement": "EC50 (cAMP luciferase reporter)", "setting": "glucagon receptor [3]", "value": 0.085, "unit": "nM"}, {"measurement": "percent in parentheses (not explained)", "setting": "glucagon receptor [3]", "value": 74, "unit": "%"}, {"measurement": "EC50 (cAMP luciferase reporter)", "setting": "GLP-1 receptor [4]", "value": 0.084, "unit": "nM"}, {"measurement": "percent in parentheses (not explained)", "setting": "GLP-1 receptor [4]", "value": 16, "unit": "%"}]}
{"binder": "HSQKTFTEDYSKYLDSRRAQDFVQWLMNT (not fully specified; also: further groups not given here)", "note": "[Peptide 17]", "values": [{"measurement": "EC50 (cAMP luciferase reporter)", "setting": "glucagon receptor [7]", "value": 862, "unit": "nM"}, {"measurement": "EC50 (cAMP luciferase reporter)", "setting": "GLP-1 receptor [8]", "value": 148, "unit": "nM"}]}
{"binder": "H[Aib]QGTFTSDYSKYLDEQAAKEFIAWLMNT-NH2", "note": "[Glucagon Analog D]", "values": [{"measurement": "EC50 (cAMP luciferase reporter)", "setting": "glucagon receptor [5]", "value": 0.85, "unit": "nM"}, {"measurement": "EC50 (cAMP luciferase reporter)", "setting": "GLP-1 receptor [6]", "value": 0.02, "unit": "nM"}]}
